Experiment [1] deals with Phosphorylated Nox1 peptide (pNox1, KLKT*QKIYF). The experiment is described as follows: ITC, phosphorylated versus unphosphorylated Nox1 peptide. On the technique in general: ITC needs no label: the signal is the heat of the interaction.
Experiment [2] shares this target. The experiment is described as follows: ITC, pNox1 peptide injected into NoxA1 AD peptide, single site model, n=3, 25° C.
Experiment [3] has the same target. The experiment is described as follows: ITC, pNox1 peptide injected into NoxA1 AD peptide, single site model, n=3, 25° C.; phosphorylated Nox1 peptide (pNox1, T429).

For “NoxA1 activation domain (AD) peptide (…)”, the fold increase of association against the unphosphorylated Nox1 peptide in experiment [1] is above 100 fold. In experiment [2], this substance gave a stoichiometry of 0.86. In addition, the Kd in experiment [3] amounted to 1500 nM.

One may read the Kd as the equilibrium constant for the complex coming apart. A high value points to lower affinity.

(Values after patent publication US20150368301A1.)
